T1: MtrE carrying a C-terminal TwinStrep-tag (Methanosarcina mazei, UniProt P80651 1-304)
T1 construct: MtrE of the Mtr complex, Methanosarcina mazei DSM 3647, locus MM_1547; the mtrE gene was amplified from chromosomal DNA with primers from the start codon to the last codon before the tag; The plasmid was put into wild-type M. mazei, so untagged chromosomal MtrE may stand in the trimeric complex beside the tagged copy; also called MtrE-TS; TS-tagged MtrE; source: M. mazei DSM 3647, from shuttle …
T1 sequence (looked up): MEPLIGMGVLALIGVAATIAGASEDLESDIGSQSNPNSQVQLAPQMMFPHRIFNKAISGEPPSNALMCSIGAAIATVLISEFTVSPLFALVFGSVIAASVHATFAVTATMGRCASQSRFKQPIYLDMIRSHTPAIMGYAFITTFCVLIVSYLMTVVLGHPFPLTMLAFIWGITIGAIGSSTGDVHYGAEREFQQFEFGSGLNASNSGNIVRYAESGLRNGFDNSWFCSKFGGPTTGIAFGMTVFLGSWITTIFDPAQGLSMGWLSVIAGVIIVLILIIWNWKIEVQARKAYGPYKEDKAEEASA


Legend:
[1] = target: T1, MtrE carrying a C-terminal TwinStrep-tag; assay: cryo-EM structure; single-particle cryo-EM of the native Mtr complex purified from methanol-grown M. mazei through MtrE-TwinStrep (Strep-Tactin), LMNG-solubilised, 6 mg/mL with 1 mM CHAPSO; buffer 50 mM MOPS/NaOH pH 7.0, 10 mM MgCl2, 150 mM NaCl; C1 consensus map with local refinements of MtrA and MtrH; conditions: both partners purified
[2] = target: the molecule itself; assay: as above

Row | Binder | binding result [1] | binding result [2]
1 | MtrB, subunit B of the Mtr complex (natural protein, UniProt P80655 1-108, looked up, MtrB of the Mtr complex, Methanosarcina mazei DSM 3647 (Goe1); single-spanning stalk subunit; Three copies stand in the whole complex; also called chain B; helix B; source: endogenous, M. mazei membranes, LMNG-solubilised, co-purified with MtrE-TwinStrep on Strep-Tactin) MSIVRIAPEINLVMDTESGTVTQERKDSIQYSMEPVFERVDKLDAIADDLVNSLSPSKPLLNTWPGRENTSYIAGIYSNSFYGIIVGLAFSGLLALIIYITRLMGGVV | binds | –
2 | MtrG, subunit G of the Mtr complex (natural protein, UniProt P80656 1-72, looked up, MtrG of the Mtr complex, Methanosarcina mazei DSM 3647 (Goe1); single-spanning stalk subunit; Three copies stand in the whole complex and form a three-helix bundle in the membrane plane; also called chain G; source: endogenous, M. mazei membranes, LMNG-solubilised, co-purified with MtrE-TwinStrep on Strep-Tactin) MDGKAPAAFVEPGEFNEVMKRLDQIDEKVEFVNSEVAQRIGKKVGRDIGILYGGVIGLLLFLIYVQISSMFM | – | binds
3 | MtrF, subunit F of the Mtr complex (natural protein, UniProt P80654 1-72, looked up, MtrF of the Mtr complex, Methanosarcina mazei DSM 3647 (Goe1); single-spanning stalk subunit; Three copies stand in the whole complex; also called chain F; helix F; source: endogenous, M. mazei membranes, LMNG-solubilised, co-purified with MtrE-TwinStrep on Strep-Tactin) MAEEHEKGVPMVLAPQMGAIDATVESIRYRAQLIARNQKLDSGVAATGIIGFAAGFLFSLLMVIVLPVAVGL | binds | –

Source: paper doi:10.1101/2025.06.02.657420, “Structure of the energy converting methyltransferase (Mtr) of Methanosarcina mazei in complex with an oxygen-stress responsive small protein” (bioRxiv, 2025)
